Experimental data from patent US20160031944A1 (PROTAGONIST THERAPEUTICS, published 2016).

Tests used:
[1] = molecular target: T1, α4β1 (R&D Systems #5668-A4) (UniProt P13612 34-977; P05556 21-728); assay: α4β1-VCAM competition ELISA
T1 construct: bought; printed as αβ1; detected with mouse anti-human CD49d antibody 9F10; also called αβ1; A4B1
Method: The solution was removed by shaking and then blocked with 250 ul of 1% BSA in 1×PBS per well. The wells were then incubated at room temperature for 1 hr with shaking. Each well was then washed once with wash buffer (50 mM Tris-HCl pH7.6, 100 mM NaCL, 1 mM MnCl₂ or MgCl₂, 0.05% Tween-20). 25 ul of serial dilutions of peptides starting at 200 μM in assay buffer (Assay buffer: 50 mM Tris-HCl pH7.6, 100 mM NaCl, 1 mM MnCl₂ or MgCl₂, 0.05% Tween-20) was added to each well. […] The final peptide and αβ1 concentrations were 100 μM and 60 nM, respectively. The plates were then incubated at 37° C. for 2 hr. The solution was then removed by shaking and each well was washed three times with wash buffer. 50 ul of 9F10 antibody at 4 ug/ml (purified mouse anti-human CD49d, BD Bioscience Cat#555502) was then added to each well, and the plate was incubated at room temperature for 1 hr with shaking. The solution was again removed by shaking, and each well was washed three times with wash buffer. 50 ul of peroxidase-conjugated AffiniPure Goat anti-mouse IgG (Jackson immune research cat #115-035-003) diluted in 1:5000 in assay buffer was added to each well. The plate was incubated at room temperature for 30 min with shaking. Each well was then washed 3 times with wash buffer. […] The reaction was stepped with 2N H₂SO₄ and absorbance was read at 450 nm.

[2] = molecular target: T2, rh integrin α4β7 (R&D Systems #5397-A30) (human, UniProt P13612 34-977; P26010 20-723); assay: α4β7-MAdCAM competition ELISA
T2 construct: bought; coated on a nickel coated plate at 800 ng/well; also called A4B7
Method: A nickel coated plate (Pierce #15442) was coated with rh integrin α4β7 (R&D Systems #5397-A30) at 800 ng/well and incubated at room temperature with shaking for 1 hr. The solution was then removed by shaking and blocked with assay buffer (50 mM Tris-HCl pH7.6, 150 mM NaCl, 1 mM MnCl₂ or MgCl₂, 0.05% Tween-20 and 0.5% BSA) at 250 ul/well. The plate was then incubated at room temperature for 1 hr. Each well was washed 3 times with wash buffer (50 mM Tris-HCl pH7.6, 100 mM NaCl, 1 mM MnCl₂ or MgCl₂, 0.05% Tween-20). To each well was added 25 ul of a serial dilution (3-fold dilutions in assay buffer) of peptides starting at 20 μM. 25 ul of recombinant human MAdCAM-1 (R&D Systems #6056-MC) was then added to each well at a fixed concentration 20 nM. The final starting peptide concentration was 10 μM, and the final MAdCAM-1 concentration was 10 nM. The plates were then incubated at room temperature for 1 hr to reach binding equilibrium. The wells were then washed three times with wash buffer. 50 ul of mouse anti-human IgG1-HRP (Invitrogen #A10648) diluted in 1:2000 in assay buffer was then added to each well. The wells were incubated at room temperature for 45 min with shaking. The wells were then washed 3 times with wash buffer. 100 ul of TMB were then added to each well and closely observe during development time. The reaction was stopped with 2N H₂SO₄ and absorbance was read at 450 nm.

T1 sequence (P13612 34-977 limits assumed, chain 1 of 2): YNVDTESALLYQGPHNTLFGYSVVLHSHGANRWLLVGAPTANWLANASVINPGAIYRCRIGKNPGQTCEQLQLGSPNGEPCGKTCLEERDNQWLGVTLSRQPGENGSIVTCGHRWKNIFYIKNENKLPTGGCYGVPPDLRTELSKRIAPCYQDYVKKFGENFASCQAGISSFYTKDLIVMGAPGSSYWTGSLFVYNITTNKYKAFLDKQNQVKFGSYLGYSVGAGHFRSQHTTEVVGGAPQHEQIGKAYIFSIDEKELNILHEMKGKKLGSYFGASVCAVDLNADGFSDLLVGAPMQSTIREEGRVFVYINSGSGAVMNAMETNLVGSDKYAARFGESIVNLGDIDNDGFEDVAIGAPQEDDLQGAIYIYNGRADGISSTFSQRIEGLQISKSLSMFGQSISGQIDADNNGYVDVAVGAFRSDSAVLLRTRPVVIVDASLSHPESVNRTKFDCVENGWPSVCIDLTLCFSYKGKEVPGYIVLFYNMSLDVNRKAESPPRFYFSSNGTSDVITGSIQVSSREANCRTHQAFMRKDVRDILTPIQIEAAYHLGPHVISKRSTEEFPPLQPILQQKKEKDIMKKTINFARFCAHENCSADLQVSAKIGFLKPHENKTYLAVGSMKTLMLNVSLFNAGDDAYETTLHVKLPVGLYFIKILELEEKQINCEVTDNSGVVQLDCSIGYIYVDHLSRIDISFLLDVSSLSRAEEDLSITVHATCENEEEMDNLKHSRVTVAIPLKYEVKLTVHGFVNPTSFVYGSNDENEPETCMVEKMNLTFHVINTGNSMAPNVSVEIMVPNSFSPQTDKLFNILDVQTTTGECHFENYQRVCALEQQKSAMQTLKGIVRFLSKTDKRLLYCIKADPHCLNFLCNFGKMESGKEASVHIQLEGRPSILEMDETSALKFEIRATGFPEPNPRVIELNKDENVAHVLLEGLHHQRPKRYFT
T1 sequence (P05556 21-728 limits assumed, chain 2 of 2): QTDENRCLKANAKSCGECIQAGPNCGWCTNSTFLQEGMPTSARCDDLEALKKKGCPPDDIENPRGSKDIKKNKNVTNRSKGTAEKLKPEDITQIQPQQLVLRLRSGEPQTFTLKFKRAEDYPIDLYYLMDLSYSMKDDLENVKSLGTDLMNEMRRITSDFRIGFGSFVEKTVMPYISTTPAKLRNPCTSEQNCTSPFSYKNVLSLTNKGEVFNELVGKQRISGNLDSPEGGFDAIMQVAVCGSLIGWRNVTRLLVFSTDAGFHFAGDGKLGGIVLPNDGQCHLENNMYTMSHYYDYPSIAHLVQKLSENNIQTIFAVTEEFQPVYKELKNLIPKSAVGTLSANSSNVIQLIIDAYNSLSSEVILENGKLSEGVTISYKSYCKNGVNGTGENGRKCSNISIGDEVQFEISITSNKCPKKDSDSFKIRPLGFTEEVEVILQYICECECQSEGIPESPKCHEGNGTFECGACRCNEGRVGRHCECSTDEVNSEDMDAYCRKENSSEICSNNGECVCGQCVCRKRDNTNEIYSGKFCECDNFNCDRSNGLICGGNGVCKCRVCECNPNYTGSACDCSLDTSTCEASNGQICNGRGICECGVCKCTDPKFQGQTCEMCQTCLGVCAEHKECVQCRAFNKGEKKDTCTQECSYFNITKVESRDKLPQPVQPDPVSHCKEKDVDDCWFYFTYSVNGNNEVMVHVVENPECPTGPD
T2 sequence (P13612 34-977 limits assumed, chain 1 of 2): as the sequence (P13612 34-977 limits assumed, chain 1 of 2) above
T2 sequence (P26010 20-723 limits assumed, chain 2 of 2): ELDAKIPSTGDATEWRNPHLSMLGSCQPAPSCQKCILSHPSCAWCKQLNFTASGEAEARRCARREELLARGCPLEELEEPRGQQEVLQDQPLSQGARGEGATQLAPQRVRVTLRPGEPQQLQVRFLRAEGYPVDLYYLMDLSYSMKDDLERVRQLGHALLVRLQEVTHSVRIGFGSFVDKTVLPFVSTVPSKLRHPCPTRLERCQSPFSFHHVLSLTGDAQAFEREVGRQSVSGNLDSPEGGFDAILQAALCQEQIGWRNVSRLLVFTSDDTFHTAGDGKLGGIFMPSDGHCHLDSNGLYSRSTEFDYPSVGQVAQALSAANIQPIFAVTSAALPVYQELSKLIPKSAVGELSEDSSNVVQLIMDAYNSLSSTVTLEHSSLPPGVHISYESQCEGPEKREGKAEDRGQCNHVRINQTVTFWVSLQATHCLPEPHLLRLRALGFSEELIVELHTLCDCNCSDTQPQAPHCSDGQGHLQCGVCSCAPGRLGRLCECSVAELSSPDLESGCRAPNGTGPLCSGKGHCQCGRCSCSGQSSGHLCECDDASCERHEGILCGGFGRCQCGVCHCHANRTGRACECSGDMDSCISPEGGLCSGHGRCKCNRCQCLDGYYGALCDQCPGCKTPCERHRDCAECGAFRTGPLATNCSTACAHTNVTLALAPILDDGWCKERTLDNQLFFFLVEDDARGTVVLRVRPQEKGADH

## Ac-CRSDTLCGE-NH2 (also: cyclised, mode not given here, also called control peptide) [SEQ ID NO 385]
[1]
  IC50: 2020 nM
[2]
  IC50: 97 nM
